Laboratory results: publication PMC5628404 (2017)
Like-named read-outs stand apart in the source and are kept apart here.

Experiments:
Test in all cases: SPR
[1] = target: T1, K27-linked di-ubiquitin (K27-Ub2) (human, UniProt P0CG48 1-76, isopeptide linkage between the C-terminal glycine of one ubiquitin and K27 of the other)
[2] = target: T2, M1-linked di-ubiquitin chain (M1-Ub2) (human, UniProt P0CG48 1-76; P0CG48 1-76)
[3] = target: T3, K63-linked di-ubiquitin (K63-Ub2) (human, UniProt P0CG48 1-76, isopeptide linkage between the C-terminal glycine of one ubiquitin and K63 of the other)
[4] = target: T1, K27-linked di-ubiquitin (K27-Ub2); remark: listed apart in the source
[5] = target: T2, M1-linked di-ubiquitin chain (M1-Ub2); remark: listed apart in the source
[6] = target: T3, K63-linked di-ubiquitin (K63-Ub2); remark: listed apart in the source
[7] = target: T1, K27-linked di-ubiquitin (K27-Ub2); remark: listed apart in the source
[8] = target: M1-linked tetra-ubiquitin chain (M1-Ub4) (human, UniProt P0CG48 1-76; P0CG48 1-76; P0CG48 1-76; P0CG48 1-76)
[9] = target: T2, M1-linked di-ubiquitin chain (M1-Ub2); remark: listed apart in the source
[10] = target: M1-linked tri-ubiquitin chain (M1-Ub3) (human, UniProt P0CG48 1-76; P0CG48 1-76; P0CG48 1-76)

B1: BRAP (1–592) (full-length) (natural protein)
chain: MSVSLVVIRLELAEHSPVPAGFGFSAAAGEMSDEEIKKTTLASAVACLEGKSPGEKVAIIHQHLGRREMTDVIIETMKSNPDELKTTVEERKSSEASPTAQRSKDHSKECINAAPDSPSKQLPDQISFFSGNPSVEIVHGIMHLYKTNKMTSLKEDVRRSAMLCILTVPAAMTSHDLMKFVAPFNEVIEQMKIIRDSTPNQYMVLIKFRAQADADSFYMTCNGRQFNSIEDDVCQLVYVERAEVLKSEDGASLPVMDLTELPKCTVCLERMDESVNGILTTLCNHSFHSQCLQRWDDTTCPVCRYCQTPEPVEENKCFECGVQENLWICLICGHIGCGRYVSRHAYKHFEETQHTYAMQLTNHRVWDYAGDNYVHRLVASKTDGKIVQYECEGDTCQEEKIDALQLEYSYLLTSQLESQRIYWENKIVRIEKDTAEEINNMKTKFKETIEKCDNLEHKLNDLLKEKQSVERKCTQLNTKVAKLTNELKEEQEMNKCLRANQVLLQNKLKEEERVLKETCDQKDLQITEIQEQLRDVMFYLETQQKINHLPAETRQEIQEGQINIAMASASSPASSGGSGKLPSRKGRSKRGK
**Q.** How did the koff [1] turn out when B1 was run?
**A.** Its koff is 0.00302 s⁻¹.

**Q.** What about the koff [2] of the same binder?
**A.** The koff was 0.00264 s⁻¹.

**Q.** What about the koff [3] of the same binder?
**A.** Its koff is 0.00395 s⁻¹.

**Q.** And the Kd [4]?
**A.** Its Kd is 6.27 nM.

**Q.** And the Kd [5]?
**A.** Its Kd is 5.19 nM.

**Q.** What about the Kd [6] of the same binder?
**A.** The Kd was 11.3 nM.

B2: BRAP (124–569) (RNF52 domain) (domain or fragment)
chain: DQISFFSGNPSVEIVHGIMHLYKTNKMTSLKEDVRRSAMLCILTVPAAMTSHDLMKFVAPFNEVIEQMKIIRDSTPNQYMVLIKFRAQADADSFYMTCNGRQFNSIEDDVCQLVYVERAEVLKSEDGASLPVMDLTELPKCTVCLERMDESVNGILTTLCNHSFHSQCLQRWDDTTCPVCRYCQTPEPVEENKCFECGVQENLWICLICGHIGCGRYVSRHAYKHFEETQHTYAMQLTNHRVWDYAGDNYVHRLVASKTDGKIVQYECEGDTCQEEKIDALQLEYSYLLTSQLESQRIYWENKIVRIEKDTAEEINNMKTKFKETIEKCDNLEHKLNDLLKEKQSVERKCTQLNTKVAKLTNELKEEQEMNKCLRANQVLLQNKLKEEERVLKETCDQKDLQITEIQEQLRDVMFYLETQQKINHLPAETRQEIQEGQINIAMASA
**Q.** B2 was tested. Which Kd [7] did it give?
**A.** Its Kd is 171 nM.

**Q.** And the Kd [8]?
**A.** The Kd was 22 nM.

**Q.** What about the Kd [9] of the same binder?
**A.** The Kd was 60.8 nM.

**Q.** And the Kd [10]?
**A.** Its Kd is 48.5 nM.
